Laboratory results published in the supplement of paper PMC10567573.

B1: STK38L (parent)
chain: RQLAYSTVGTPDYIAPEVFMQTGY
B2: HDAC6 (parent)
chain: KMKTRELHRESSNFDSIYICPSTF

Variants of: B1
Experiment: protein stability index of a GFP-peptide fusion (GPS, HEK-293T) (PSI 1-6); higher = more stable
Settings: c terminus: a fixed tail appended
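Note: lentivirally expressed fusions sorted by FACS into six bins by GFP to DsRed ratio, PSI derived from sequencing read proportions per bin multiplied by bin number.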

Protein stability index, by site and new letter:
P11: D 2.36
L3: I 2.24; K 2.68; C 2.06
S6: G 2.32; D 2.55; V 1.45; C 1.84
G9: N 2.62; C 1.97; Q 2.77; E 2.71; F 2.27
P16: M 2.13
F19: A 3.68; S 2.78; G 3.53
A15: C 2.57; F 1.98; I 1.43; S 2.78
A4: P 2.39; F 1.89; W 1.64; K 3.29; H 2.61
V8: A 2.59; R 2.25
T7: D 2.26; N 2.51
Y24: K 3.38
D12: E 2.43; V 1.59
Q2: N 2.16
R1: F 3.13; N 2.82
G23: K 2.59; H 2.16
Y5: K 2.58; W 2.13; Q 3.43; M 2.95
V18: F 2.28
E17: G 2.39; V 1.83; S 2.21; A 2.08; H 2.22
T22: E 3.46; S 2.77
M20: P 3.25; L 2.89
Y13: D 3.26; W 1.88
Q21: E 3.22
I14: F 1.57; N 2.95

Variants of: B2
Experiment: as above
Settings: c terminus: a fixed tail appended

Protein stability index of substitutions, site by site:
S12: I 1.94; G 3.05; D 2.29; E 3.25; H 2.46; C 1.89; A 2.34; P 2.12; F 1.74; T 2.17; L 1.83; R 1.95; W 2.17; N 2.04; Q 2.54; V 2.38; K 2.74; Y 1.53; M 1.55
S11: P 2.13; Y 1.98; G 1.96; F 1.71; E 2.2; I 2.71; T 2.41; D 2.54; W 2.85; A 1.87; L 1.66; Q 2.36; V 2.3; R 1.71; H 3.04; K 2.72; N 2.3; C 1.75; M 1.61
R9: I 1.86; N 2.4; G 2.38; C 2.39; V 2.85; A 2.27; L 2.07; H 2.15; P 2.45; W 1.78; Y 2.09; M 1.84; S 2.27; Q 2.58; K 2.8; D 2.45; F 1.39; T 2.39; E 2.77
N13: T 2.35; R 3.21; Q 2.44; F 1.45; W 1.93; I 1.73; K 2.23; E 2.23; S 1.97; V 1.98; Y 1.64; G 2.68; L 1.74; M 2.58; D 2.61; A 1.93; P 2.49; H 1.58; C 1.79
E6: N 2.32; T 3.12; K 2; F 1.86; R 1.92; G 1.57; S 2.2; Q 2.66; A 1.99; Y 1.72; L 1.44; I 1.83; P 1.66; W 1.76; D 2.85; V 2.23; M 1.6; C 1.31; H 1.96
D15: H 1.44; C 2.82; L 4.27; G 1.69; A 2; E 1.93; P 1.68; F 2.02; M 1.92; K 1.79; N 2.01
K1: R 1.38; A 2.28; Q 2.23; M 1.83; I 1.86; E 2.84; H 1.9; P 2.58; L 1.83; S 2.3; Y 1.59; T 2.14; W 1.98; D 3.04; V 2.33; N 2.12; G 2.29; F 1.92; C 1.7
H8: T 2.21; E 2.32; N 2.07; D 2.22; Q 2.92; R 2.22; F 1.69; K 2.5; S 2.92; A 1.98; I 1.38; M 1.97; Y 1.56; P 2.56; V 2.6; L 1.97; C 1.6; G 2.15; W 1.83
R5: P 2.36; W 1.72; E 2.73; S 2.21; G 2.39; T 2.15; F 1.94; L 3.32; D 2.62; I 1.83; C 1.91; Y 1.8; A 1.98; N 2.46; M 2.4; Q 2.08; K 2.38; H 2.88; V 2.27
F14: G 4.12; Q 3.71; A 3.84; S 2.8; C 2.24; D 2.79; V 2.68; H 2.88; T 3.11; R 1.7; L 2.41; N 3.05; M 2.44; I 2.58; P 2.99; Y 1.78; E 3.34; K 3.03; W 2.01
T4: H 1.95; R 2.41; Q 2.26; L 1.72; G 2.83; Y 2; F 2.11; W 2.19; C 1.34; A 2.29; M 1.65; I 1.85; N 2.03; K 2.39; V 2.08; E 1.99; P 2.05; S 2.94; D 2.89
M2: Y 2.11; G 2.33; S 2.37; P 2.96; T 2.59; V 1.66; A 3.17; R 2.12; Q 3.52; N 2.37; H 2.43; W 2.21; I 2.15; L 1.99; D 2.75; K 2.91; C 2.28; E 2.6; F 2.04
L7: R 3.2; A 3.33; N 2.65; Q 2.72; M 1.46; Y 2.41; E 3.2; F 2.53; G 3.12; S 3.05; I 2; V 1.92; P 2.72; C 1.75; D 2.73; W 2.62; T 2.77; K 3.11; H 3.02
K3: P 2.15; Y 2.06; S 2.81; W 2.14; V 2.3; H 2.04; T 2.2; M 1.5; N 2.32; R 2.42; D 2.59; F 2.1; I 1.68; A 2.62; L 1.71; G 2.08; E 2.94; C 2.43; Q 2.38
E10: A 2.51; V 2.04; L 2.15; T 2.83; K 2.71; F 2.26; R 2.1; M 2.62; I 1.85; H 1.87; Y 1.56; N 2.98; W 1.22; P 1.82; S 1.79; C 2.18; Q 1.78; D 2.03; G 3.45
